Among the data in the PETadex activity labels are plate clearing values, retold here.

Substrate in this data set: BHET
The following applies: 120 h.

B1: unnamed (protein)
chain: MHTKNYRNDARTVPKRSSLAKSLLAGGILLFSAAANADIIFQEDFNSSLGQFTASGSVTTGTYGARMAAAYGSGDAFITSAPISTVGFTNISLTWTRTTSGLDSGESGIAMFSTNGSTWTTIESVQSASGVRTVALPAGAAGQSALRLRFEVDGSLSSETYTVDTIRLEGTGSGGGCEPNCEPPPTGNPYERGPAPTTSSLEASTGPFQVATTTVSSTTADGYGSGTIYHPTGVTGPFAAIAICPGYTATQTSISQWGPRLASHGFVVITINTNSTSDQPPSRATQLMAALDQLVTFSNTSGHAIFGKVDGTRRGVMGHSMGGGGSLIAARDNPSLKAAIPMAPWYSSSTNFSAIRTPTMIVACESDSIARVSSHALPFYNSIPSTTPKAFAERNNGSHNCPINNNDWWPTLNKYGVAWMKRFLDNDTRYSPWLCGAPHEAVVDGTTYSRYLSNCPY
On to B1, for which the plate clearing entry is reported as “clears the plate (z > 3 vs empty vector)”.

B2: unnamed (protein)
chain: MRHRSISALVLGTAVVAGAAQAQINPFAKGPDPTPASIQATGPFAISMQTVPRAAGFGGATVYSPNDPGSYALVVLCPGFIETQSAISAVGQRLATHGFVVATIDTVTTIDFPASRGTQLIAALQTITALNTGPVAGKIDTTRLVVGGHSMGGGGTLEASRTNPAIKAGLPIAPFHFVKQFNTPVPQLITGGQVDAIAPVGQHAIPFFEMLPDATPKIYAELTGGNHFFVTQNPPNQPINKLLLAWTKRFADNDLRYEQFITATAVQAEVANGALSQTRREATPF
As to B2, the plate clearing entry is “not clears the plate”.

B3: unnamed (protein)
chain: MQYASTPTLRHVAQFAKASVLAATVLLASVAHAQFEKGPNPTVSALERAGTFATRTTTVSSLSASGFGGGTIYYPTAAGSYGVIAISPGFTARQSSISWMGTRIASHGFVVITIDTNTTSDQPDSRARQLKAALDKVVSLSTGRTNVLYGKVDASRLAVAGHSMGGGGSLAAARDYPTLKAAVPLAPWHTTKSFSSVRVPTLIISGENDSVAGNSSHSIPFYNSLPSSTPKGYLELNAEDHFFPQDSGEYGLVGKYMISWFKRFVDSDTRYSPFLCGAEHQAQVRVTSRVSDSRTNCPY
With B3, the plate clearing entry is listed as “not clears the plate”.

B4: unnamed (protein)
chain: MKTTTIIKSTLCAFTLTFSLSAFSGGGGGGGGGNNGNLPPPDTCNTNCGYEIGPNPTLGFLQASQGPLPVSSTNVSSSVNGFGGGTIYYPSNISDEMAAISIAPGFTNTQSAVAWWGPILASHGFVVITINTNSRFDQPESRSRQLDSALSYLISEGDRGSSPISGLVDENRLATMGFSMGGGGSLRSASRNRLSAAVPLAPWSTGSNNFDDIGVPTLIMACENDTTARVNTHASPFYNAIPGSTDKAFMEINNGPHNCANGESSTNRSLLSTYGVSWMKRFLDKDRRYNQFLCGPNHEANSRISEYRDTCSYG
As to B4, the plate clearing entry is given as “not clears the plate”.

B5: unnamed (protein)
chain: MERGNHRAKWAIGFGLLLLGAAAHSQTNPYQKGPDPTSATLNATSGSFAVATSTVSSLAANGFGGGTIYYPTQTGTYAVLAISPGFTATQSSIAWLGRRISTHGFVVITIDTNSTLDQPPSRATQLMAALRHVTDLSSSTVRSRVDASRRGVAGHSMGGGGTLIAARDNPSLKAAVPLTAWSTTKIFSTVQVPTLVVGAESDSVAPVSSHSIPFYNSLSNSLDKAYAELNNASHFAPNSTNTPIGRYSVAWVKRFMDNDTRYTPFLCGTPHTSYATSTVFSDYRSTCPY
In the case of B5, the plate clearing result is “not clears the plate”.

B6: unnamed (protein)
chain: MTTKRHRTATTPTRRARLALLAAATLLSFAAQAQVVIFQENFNSGLGQFTASGTVSTSSGGAVMQGCYNCTDGAITSKPISTVGFTNLKLSYDRTTTGLDSGEYGVAAYSVNGGAWTVIESIQSSSGRVTIALPAAAANQASLRLRFRVNASLSAETFTVDNVVLEGTPGGAPGPGGNPYQKGPDPTAAALEASAGPFTVATTTVSASSASGYGGGTIYYPTNVAGPFAAIAVVPGYTATQSSISWWGPRLASHGFVVITIDTNSTSDLPASRATQLMAALNQLKTFSATSGHAIYGKVDPNRLGVMGWSYGGGGTLIAARDNPTLKAAIPLAPKTSSGTDFSGITVPTLIVGCESDTTAPVSSWAIPFYNSIPASTKKAYLEINNGDHFCVTTSNSSADKAILGKYGVAWMKRFLDNDTRYSPFLCGAPHQADLSGNAAISEYRDNCPY
For the protein B6, the plate clearing result is recorded as “not clears the plate”.

B7: unnamed (protein)
chain: MIKDFLLSRVVIVAGTLIFSMPTLAEITVSETTVVIPKEALPVPTLSNCITDSAITADALSDTRDNGPFTVSTKRVPRQSANGFGGGTIHYPTNASGCGLLGGIAVVPGYVSYESSIKWWGPRLASWGFVVITINTNHISDNPDSRATQLNAALDHLLLDSTVANMVDRDRLGVIGWSMGGGGALRLATDRSTVRAIIAQTPYHDTSYPTMDTPALFIACENDRIAPNKKYTNVFYNNATGPKMKVEVSNGSHFCASHGFHEILLSKPGIAWMQRYINGDTRFDQFLCSSENYNSSPRISSYNYKNCL
With B7, the plate clearing entry is given as “not clears the plate”.

B8: unnamed (protein)
chain: MAKFTGAAQFLKASMAIGAIVLSAAASAQTNPYQRGPAPTDSSLAADRGPLAYSSFTVSRPSGYRAGTVYYPTNAGGTVGAIAVVPGFTAYQSDINWWGPRLASWGFVVITIDTNSTLDQPSSRSRQQLAALDQVATLSRTSGSPIYNKVDTSRMGVMGWSMGGGGSLISTQNRPSLKASIPFAPWNGTSSFSSVTTPTFIIACQSDLIAPVASHANDFYNSLSRPPKMFLEIRGGSHYCANSSNGNKDVLGAKGVAWMKRY
In the case of B8, the plate clearing result is “not clears the plate”.

B9: unnamed (protein)
chain: MERHNSRRRWGMGLGLLLLAASAHAQYQKGPDPTSASLNASSGPFSVATSSVSSLAAVGFGSGTIYYPTTAGSYAVLAICPGFTATESSIAWLGRRIATHGFVVITINTDSTLDQPPSRATQLMAALRHVTESSSATVRSRVDASRRGVAGHSMGGGGTLYAARDNPSLKAAVPLTAWSTTKTFSSMQVPTLVVGAENDSIASVNSHSIPFYNGLPGSLDKAYAELNGASHFAPNTTNTPIGRYSVAWVKRFMDEDTRYSPFLCGAPHQSYA
Turning to B9, the plate clearing entry was “not clears the plate”.

B10: unnamed (protein)
chain: MISNRRAPARRAGAALTALALAVVLAACDIRGPAPTEQILEAPSGPFAVGSVAVPSSAGFGGGTIYYPSEAAGPFGIIAVTPGFLGNQTSIGTWGPRLASHGFVTITINTTGGFILPDQRSAEQRQALTYVVNQGNRSSSPIFGKVDGDRKGVAGHSMGGGGTLVSAREDPTIRAAVPFAPWYTSTNFSNVTVPTLIVACQSDGVAPVASHASPFYNSIPATTDKSYISVAGADHFCANSPTGGANDVGKYVVAFFKRFVDGDTRYDPWVCG
Consider B10, for which the plate clearing result was “not clears the plate”.

B11: unnamed (protein)
chain: MPPHAARPGPAQNRRGRAMAVITPRRERSSLLSRALRFTAAAATALVTAVSLAAPAHAANPYERGPNPTDALLEARSGPFSVSEERASRFGADGFGGGTIYYPRENNTYGAVAISPGYTGTQASVAWLGERIASHGFVVITIDTNTTLDQPDSRARQLNAALDYMINDASSAVRSRIDSSRLAVMGHSMGGGGSLRLASQRPDLKAAIPLTPWHLNKNWSSVRVPTLIIGADLDTIAPVLTHARPFYNSLPTSISKAYLELDGATHFAPNIPNKIIGKYSVAWLKRFVDNDTRYTQFLCPGPRDGLFGEVEEYRSTCPF
Take B11: the plate clearing entry was “not clears the plate”.

B12: unnamed (protein)
chain: MTPTTHDDIDSHPSRTPAMRRAWPAFIAGTLLSLGAQAQVAIFKEDFQGGIGQFTSAGAASVSNGRVVMKGCLTCADGSVTSKEISTVGFDALRLSYDRTIVGLDAGEYGEVAYAVDGGEWTMLWGRLDNRSGRGTIDLPAAAANQKSLRLRYRIHASDSAETFTLDNVLLEGTPRSVTHPNPYAKGPDPTASALEAKAGPFTYAATVVPSGKASGYGGGTLYHPDKEVGPFAAIVIVPGYTATQESVKWWGPLLASHGFVVMVIDTLDNRDLPGSRATQLMAAVSQVKGFNTTQGHAIQGKVDPARVGIMGWSFGGGGTLLAAQAHPELKAAIPMAPKTWGETLKTADIKVPTLIIGCQADTTAPVKDWAIPFHEGIPGSVRKAYLEIAQGGHGCVSAQFNKKAADLAMMGKYGVSWMKRFLDEDTRYSPYLCGAPHQADVNGKTVVSAYRENCPY
Turning to B12, the plate clearing result is given as “not clears the plate”.

B13: unnamed (protein)
chain: MPGYQGTQQNLQWLAPRLASWGFTVINLGTNTLTDDPDSRATQIRNAGTQLLSFSATAGNPIANKVRSVTASTGLGVSGHSMGGGGTMVVLRDDSRFTAGAPLAPYHPSGAFSGVTKPTFFLVCASDVAAPGNTYAKPWYNSMASAEKLYMSVPGDHLCPMTGYGDKAKQGKYLVSWFSRWLKGDTSYSQFLCTDSIRNVDKNNTSIVTEWMDTCPY
Consider B13, for which the plate clearing result is “not clears the plate”.

B14: unnamed (protein)
chain: MQKIRSIGRAGRARWGRAALTAVALAAALSAAQAQTVVGPDPTAAALEAARGPFAVSTTTIKAPRGFRAGTVFFPASVTTPMAAVAVVPGFTARQSSINWLGPRLASWGFVVVTIDTNSTSDQPAARATQLMAALKQVVDESKVAGSPFFGKVDGARLGVMGHSMGGGGSLIAARNNPTLKAAIPMAPWNLGRNFSGVSVPTLVMACQNDAVAPVAQHASPFFESIPATVDKAFLEVRGGSHLCPTTASVANQPLLGKYSVAWMKRFMDNDTRFSAFLCDAPHQADLAGNKISAYRENCPY
As for B14, the plate clearing result was “clears the plate (z > 3 vs empty vector)”.
